Laboratory results: the supplement of paper PMC7877785
± gives the uncertainty stated by the source.

Experiment: self-splicing fitness, log relative to wild type (ln ratio); higher = more splicing; Tetrahymena group I intron in knt gene, E. coli kanamycin selection, DiMSum; sequences stand for … in CUCUCU…GGAGGGAAAAGUUAUCAGGCAUGCACCUGGUAGCUAGUCUUUAAACCAAUAGAUUGCAUCGGUUUAAAAGGCAAGACCGUCAAAUUGCGGGAAAGGGGUCAACAGCCGUUCAGUACCAAGUCUCAGGGGAAACUUUGAGAUGGCCUUGCAAAGGGUAUGGUAAUAAGCUGACGGACAUGGUCCUAACCACGCAGCCAAGUCCUAAGUCAACAGAUCUUCUGUUGAUAUGGAUGCAGUUCACAGACUAAAUGUCGGUCGGGGAAGAUGUAUUCUUCUCAUAAGAUAUAGUCGGACCUCUCCUUAAUGGGAGCUAGCGGAUGAAGUGAUGCAACACUGGAGCCGCUGGGAACUAAUUUGUAUGCGAAAGUAUAUUGAUUAGUUUUGGAGUACUCGUGGUCG
Procedure, shortened: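 The eight P1ex-region nucleotides of an intron in the knt kanamycin-resistance gene on pET-22b(+) were all randomised and the library put into E. coli BL21(DE3). Six replicate transformations were grown overnight at 37°C or 30°C on LB agar with or without 25 μg/mL kanamycin, together with 100 μg/mL carbenicillin, 50 μM IPTG and 0.2% rhamnose. Colonies were pooled and amplicon-sequenced on an Illumina HiSeq 2500. Fitness from DiMSum is the error-weighted combination of wild-type-normalised replicate fold changes, kanamycin over none.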

Sequence | self-splicing fitness (ln) (30 °C) | self-splicing fitness (ln) (37 °C)
UACAAGCAAUAUUACGGCCG | -0.0815 ± 0.085 | 0.427 ± 0.13
AUACAGCAAUAUUACGCGCG | -0.869 ± 0.1 | -1.07 ± 0.093
GCGCAGCAAUAUUACGCUGU | -3.56 ± 0.23 | -2.86 ± 0.34
UCUGAGCAAUAUUACGUCGC | -4.03 ± 0.37 | -2.54 ± 0.36
AUGCAGCAAUAUUACGAAUA | -2.68 ± 0.2 | -1.68 ± 0.16
GUGAAGCAAUAUUACGAGGC | -2.59 ± 0.25 | -1.1 ± 0.22
UUUGAGCAAUAUUACGCUCG | -3.8 ± 0.4 | -2.01 ± 0.34
CGUGAGCAAUAUUACGUUAA | -4 ± 0.31 | -3.55 ± 0.3
GAUAAGCAAUAUUACGUUGA | -2.88 ± 0.14 | -1.79 ± 0.14
CCAUAGCAAUAUUACGUCAC | -3.48 ± 0.28 | 
GAAUAGCAAUAUUACGAAAC | -1.62 ± 0.24 | -0.632 ± 0.17
CGUAAGCAAUAUUACGCCGC | -1.76 ± 0.45 | -2.13 ± 0.42
CUCAAGCAAUAUUACGUAGG | -0.955 ± 0.068 | -0.324 ± 0.11
GCUUAGCAAUAUUACGCCUA | -2.32 ± 0.28 | -1.05 ± 0.22
CGGAAGCAAUAUUACGCUUC | -3.81 ± 0.35 | 
UACAAGCAAUAUUACGGUAG | -2.15 ± 0.089 | -1.43 ± 0.086
AUUUAGCAAUAUUACGCGGU | -2.13 ± 0.29 | -1.87 ± 0.44
CAACAGCAAUAUUACGGAAC | -4.2 ± 0.28 | -3.48 ± 0.23
CCAAAGCAAUAUUACGAGUU | -4.72 ± 0.34 | -2.31 ± 0.16
CCGUAGCAAUAUUACGAGAU | -3.86 ± 0.32 | -2.29 ± 0.3
GCGCAGCAAUAUUACGACGG | -1.13 ± 0.14 | -0.906 ± 0.17
UCCGAGCAAUAUUACGUCCG | -2.24 ± 0.24 | 

Sequence | self-splicing fitness (ln) (30 °C) | self-splicing fitness (ln) (37 °C)
CUCUAGCAAUAUUACGCGAG | -3.63 ± 0.25 | -3.28 ± 0.37
CAAAAGCAAUAUUACGUGCC | -2.99 ± 0.24 | -1.41 ± 0.23
AGUUAGCAAUAUUACGAACU | -1.59 ± 0.23 | -1.89 ± 0.28
CAAGAGCAAUAUUACGUUCG | -1.27 ± 0.089 | -0.199 ± 0.11
CGACAGCAAUAUUACGGUUC | -2.59 ± 0.1 | -2.24 ± 0.13
CGGAAGCAAUAUUACGACCU | 0.28 ± 0.096 | 0.399 ± 0.11
AUAAAGCAAUAUUACGGCGC | 0.0765 ± 0.13 | 0.21 ± 0.14
ACGUAGCAAUAUUACGUACG | -2.3 ± 0.19 | -1.35 ± 0.23
ACGCAGCAAUAUUACGCCUC | -2.83 ± 0.17 | -1.22 ± 0.19
CUCGAGCAAUAUUACGCAAC | -3.47 ± 0.49 | -1.71 ± 0.31
UUGCAGCAAUAUUACGCGUA | -0.889 ± 0.13 | -0.457 ± 0.11
AUACAGCAAUAUUACGCUUG | -1.35 ± 0.08 | -0.94 ± 0.1
AGAAAGCAAUAUUACGUACU | -0.412 ± 0.096 | 0.261 ± 0.11
CCCGAGCAAUAUUACGUCCU | -3.97 ± 0.39 | -2.75 ± 0.39
AUAUAGCAAUAUUACGGCCG | -1.15 ± 0.2 | -0.566 ± 0.25
UAUGAGCAAUAUUACGUAGU | -3.67 ± 0.28 | -1.99 ± 0.21
UACGAGCAAUAUUACGUGGG | -3.25 ± 0.14 | -2.88 ± 0.19
CCAUAGCAAUAUUACGCUGU | -4.23 ± 0.39 | -2.54 ± 0.29
UCCUAGCAAUAUUACGUGGG | -3.24 ± 0.15 | -2.5 ± 0.2
CGAAAGCAAUAUUACGUUUA | -1.99 ± 0.13 | -1.83 ± 0.14
ACUGAGCAAUAUUACGUCGU | -2.87 ± 0.16 | -1.96 ± 0.14
